The values that follow are results of earlier work, collected in article PMC2934757.

For orientation: Kd means a measure of binding affinity in units of concentration.

For the series, the target named is IGF-1 (Homo sapiens) (UniProt P05019).
Chain of UniProt P05019 (P05019 49-118): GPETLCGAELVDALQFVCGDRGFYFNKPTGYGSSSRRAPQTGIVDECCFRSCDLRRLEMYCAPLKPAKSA

Regarding IGFBP-2 1-248 (from UniProt P18065), the Kd is 7 nM.
